According to patent US12410253B2, “Compositions comprising anti-NRP2 antibodies” (aTyr Pharma, Inc., priority 2019, dated 2025):
Positions count from the first letter of the chain named. Blank lines part the entries; values can stand above or below the molecule they belong to.

Biological target: T1, Human NRP2 (aa23-855) (Homo sapiens, UniProt O60462)
T1 construct: Human NRP2 (aa23-855)
T1 sequence (O60462 23-855 isoform O60462-3): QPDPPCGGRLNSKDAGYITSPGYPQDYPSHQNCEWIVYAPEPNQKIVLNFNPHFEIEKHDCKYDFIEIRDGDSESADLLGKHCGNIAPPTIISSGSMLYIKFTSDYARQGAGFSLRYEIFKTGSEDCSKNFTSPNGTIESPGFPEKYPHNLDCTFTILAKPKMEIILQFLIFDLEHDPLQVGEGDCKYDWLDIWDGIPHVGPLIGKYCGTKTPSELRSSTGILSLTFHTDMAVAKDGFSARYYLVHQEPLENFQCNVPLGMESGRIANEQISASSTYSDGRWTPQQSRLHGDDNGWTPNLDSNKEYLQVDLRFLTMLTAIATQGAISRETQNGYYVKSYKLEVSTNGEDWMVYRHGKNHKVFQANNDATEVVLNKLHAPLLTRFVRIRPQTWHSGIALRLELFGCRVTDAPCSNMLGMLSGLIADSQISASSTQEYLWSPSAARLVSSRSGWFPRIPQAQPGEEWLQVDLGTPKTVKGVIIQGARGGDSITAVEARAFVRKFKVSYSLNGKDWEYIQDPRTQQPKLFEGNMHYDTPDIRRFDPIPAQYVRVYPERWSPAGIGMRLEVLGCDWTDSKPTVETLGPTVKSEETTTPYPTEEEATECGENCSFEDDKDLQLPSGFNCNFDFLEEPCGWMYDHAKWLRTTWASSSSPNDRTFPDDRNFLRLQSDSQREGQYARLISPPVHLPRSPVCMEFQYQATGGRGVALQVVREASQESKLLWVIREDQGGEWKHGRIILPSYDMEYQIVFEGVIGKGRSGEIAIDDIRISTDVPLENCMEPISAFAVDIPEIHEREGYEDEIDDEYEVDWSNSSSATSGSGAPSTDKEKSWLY
Experiment: SPR binding affinity of anti-NRP2 antibodies to human NRP2 antigen
Conditions: KD = kd/ka, Langmuir (1:1) model
Procedure: Anti-NRP2 antibody binding and affinity measurements. […] SPR experiments were conducted on a Bio-Rad ProteOn XPR36 Protein Interaction Array instrument. Biotinylated anti-human antibody (ThermoFisher Cat #7103302100) was immobilized on ProteOn NLC sensor chips. Anti-NRP2 antibodies were subsequently flowed over and captured by the anti-human antibody. Human NRP2 antigen protein was flowed over the captured antibody at varying concentrations (150, 50, 16.67, 5.56, 1.85 nM). The sensor chip surface was regenerated between each analyte run to remove anti-NRP2 antibodies and NRP2 protein. Data was double referenced against a surface with no anti-NRP2 antibody captured (immobilized anti-human antibody only) and a buffer only blank. Affinity constants were derived by globally fitting sensograms to a Langmuir (1:1) interaction model in the ProteOn manager software. For each anti-NRP2 antibody, data from the multiple NRP2 concentrations was fit as a single data set with dissociation rate constant (kd), association rate constant (ka) and Rmax values as global parameters. The reported binding affinity is the equilibrium dissociation constant (KD) calculated from kd/ka. • Running buffer: 50 mM HEPES, 300 mM NaCl, 5 mM CaCl2), 0.005% Tween-20, pH 7.4 • Immobilized antibody: CaptureSelect Human Fab-kappa Kinetics Biotin Conjugate, ThermoFisher Cat #7103302100 • Antigen: Human NRP2 (aa23-855) with C-terminal Avi-, Myc- and His-tags • Regeneration buffer: 10 mM glycine pH 2.0

Kd: 2.7 nM
B1: aNRP2-2v4: humanized, affinity matured anti-NRP2 antibody, target domain c; VH SEQ ID NO: 45, VL SEQ ID NO: 46 (antibody, V domains shown)
VH: QVQLVQSGAEVKKPGASVKVSCKASGYTFTSYWMHWVRQAPGQGLEWMGVIHPNSASTFYNERFKTRATMTVDRSSSTAYMELSSLRSEDTAVYYCSRPGTVRRSDYWGQGTTVTVSS
VL: DVVMTQSPLSLPVTLGQPASISCRSSQNIVHSTGNTYLEWYQQRPGQSPRLLIYKVSNRFSGVPDRFSGSGSGTDFTLKISRVEAEDVGVYYCFQGSHVPWTFGGGTKVEIK
modifications: Variable heavy chain region; Light chain variable region

Kd: 0.358 nM
B2: aNRP2-10v13: humanized, affinity matured anti-NRP2 antibody, target domain b1; VH SEQ ID NO: 69, VL SEQ ID NO: 70 (antibody, V domains shown)
VH: EVQLVQSGAEVKKPGATVKISCKVSGFNIKDYYVHWVQQAPGKGLEWMGRIDVHDDETKYAPKFQGRVTITADTSTDTAYMELSSLRSEDTAVYYCATPIYGAREAWFAYWGQGTLVTVSS
VL: DIQMTQSPSSLSASVGDRVTITCTASSSVSSSYLHWYQQKPGKAPKLLIYRTSNLASGVPSRFSGSGSGTDFTLTISSLQPEDFATYYCHQYYRSPPTFGGGTKVEIK
modifications: Variable heavy chain region; Light chain variable region

Kd: 0.2 nM
B3: aNRP2-10v5: humanized, affinity matured anti-NRP2 antibody, target domain b1; VH SEQ ID NO: 47, VL SEQ ID NO: 48 (antibody, V domains shown)
VH: B2 VH with V34I, H54E, A103S
VL: B2 VL
modifications: Variable heavy chain region; Light chain variable region

Kd: 17 nM
B4: aNRP2-1v3: humanized, affinity matured anti-NRP2 antibody, target domain b2; VH SEQ ID NO: 43, VL SEQ ID NO: 44 (antibody, V domains shown)
VH: QVQLVQSGAEVKKPGASVKVSCKASGYTFTSYWMHWVRQAPGQGLEWMGAIYPGNSDTSYNQQFKGRVTMTRDTSTSTVYMELSSLRSEDTAVYYCARRGGGYFDYWGQGTLVTVSS
VL: DIQLTQSPSFLSASVGDRVTITCKASQNVGAAVAWYQQKPGKAPKLLIYSASNRYTGVPSRFSGSGSGTEFTLTISSLQPEDFATYYCQQYSSYPLLTFGGGTKVEIK
modifications: Variable heavy chain region; Light chain variable region
